In the DeepSol protein solubility set:

assay: soluble on expression in E. coli; label from the status in PepcDB or PDB records

Question: With “MAHHHHHHMGAEHSTGMTKVLMPQFSTKRQTGPFLSPVERVTASGQSVVIECGDGVSRVDDGTAVVELFALDSKATEEDAMVEAFGEFAITKDDLIGRTRSSLKRGRVEEDEDLPCYFLAPRRRSCSVGGHNSADADSVLASPSRWGAVETDADGAMWRLLQEYDELLCVEAIGDATEDLYCYPDHRKDDEFDSNAEDFSGNDYPDDADERSGESAERAEEEASGFSTERRGGRVASHSTYGMFCEEGYSERSLSSVWNSDG” as the sequence, how does the “soluble on expression in E. coli” value read?
Answer: soluble

Question: For “MSDDEAAVPGNKPIRLPKKAAKVKNKAPAQLQITAEQLLREAKERELELIPPAPKTKITDPDELKEYQRKKRKEFEDGIRKNRMQLANWIKYGKWEESIGEIQRARSVFERALDVDHRSISIWLQYAEMEMRCKQINHARNVFDRAITIMPRAMQFWLKYSYMEEVIENIPGARQIFERWIEWEPPEQAWQTYINFELRYKEIDRARSVYQRFLHVHGINVQNWIKYAKFEERNGYIGNARAAYEKAMEYFGEEDINETVLVAFALFEERQKEHERARGIFKYGLDNLPSNRTEEIFKHYTQHEKKFGERVGIEDVIISKRKTQYEKMVEENGYNYDAWFDYLRLLENEETDREEVEDVYERAIANIPPHSEKRYWRRYIYLWINYALYEELVAKDFDRARQVYKACIDIIPHKTFTFAKVWIMFAHFEIRQLDLNAARKIMGVAIGKCPKDKLFRAYIDLELQLREFDRCRKLYEKFLESSPESSQTWIKFAELETLLGDTDRSRAVFTIAVQQPALDMPELLWKAYIDFEIACEEHEKARDLYETLLQRTNHIKVWISMAEFEQTIGNFEGARKAFERANQSLENAEKEERLMLLEAWKECETKSGDQEALKRVETMMPRRVKKRRQIQTEDGVDAGWEEYFDYIFPQDQAAKGSFKLLEAAARWKREREEAAARAAQELDAPIPEGDDDEEKEEAGKDAEEKVREGDSDTDLSESSSSSDSESSSSSSSDSSDSSDDDEDK”, which “soluble on expression in E. coli” value is on record?
Answer: not soluble

Question: With “IQHATASLIQTNTDQELLVVDVTPSFASLWLVPNINDFHQRHPNIRVKILTGDGAVKNIHGESDLHVRCLPLSTHYEYSQLLCEETLLLIGNTNLPKLSDNQAISHYPFIPQTTRPQLWEQFKQENDLECPITYHSVGFEHFYLACEAVRMEKGLALLPDFMAQFSILRGDIQHIGNLKLHSGYGYYVVIPNFRLTSRKVALFHDWLKDKLTHHT” as the sequence, how does the “soluble on expression in E. coli” value read?
Answer: soluble

Question: Which “soluble on expression in E. coli” value does the source give for “MGSDKIHHHHHHMDGVKCQFVNTNGITLHVAAAGREDGPLIVLLHGFPEFWYGWKNQIKPLVDAGYRVIAPDQRGYNLSDKPEGIDSYRIDTLRDDIIGLITQFTDEKAIVIGHDWGGAVAWHLASTRPEYLEKLIAINIPHPHVMKTVTPLYPPQWLKSSYIAYFQLPDIPEASLRENDYDTLDKAIGLSDRPALFTSEDVSRYKEAWKQPGALTAMLNWYRALRKGSLAEKPSYETVPYRMIWGMEDRFLSRKLAKETERHCPNGHLIFVDEASHWINHEKPAIVNQLILEYLKNQ” here?
Answer: not soluble

Question: With “MEFKVGDTVVYPHHGAAVIEAIEHREMGGETLEYLVLQINQSDLVVRVPSKNAELVGVRDVVDDDGLQKVFGFLRETDVEEAGNWSRRFKANQERLASGDVNKVAEVVRDLWRRDQGKGLSAGEKRMLAKARQVLVGELALAENKDEKQTEEILAQVDATIERHRAENKGIEETKVEPLGDIDLDDLNFDDED” as the sequence, how does the “soluble on expression in E. coli” value read?
Answer: not soluble

Question: For “MGSDKIHHHHHHMQFVFDIDGTICFDRFQIDARIKAILKDAANYGHQISFASARSYRDCIDVLGQELSQKTVIGLNGGLAYKAGELILEKPMNHRAFDLALYYCHRYQLPYFVDDDFNYAHHLEQFIPFIHSVDPLKLAKEVGVEDLKHPIKMVVFFGNHLDKIAEVSHHLAKLEQLDITFHDDESCLYLNPKEVTKSSTIQELFDHDFVAFGNDRNDIAMFQAAVYSVQVGDFADLSPFADTQVLLRQDYHQAVADKIHETFEKFRA”, which “soluble on expression in E. coli” value is on record?
Answer: not soluble

Question: For “SPLPDTMFCAQQIHIPPELPDILKQFTKAAIRTQPADVLQWSAGYFSALSRGDPLPVKDRIEMPVATQKTDTGLTQGLLKVLHKQCSHKQYVELADLEKKWKNLCLPVEKLRTILELDPCEDKIEWIKFLALGCSSLGRTLNTAMKNVCEILTSDPEGGPARIPFETFAYVYQYLSGLDPELPAVETENYLTSLRLMSESRKNGMIGLSDFFVGKKII”, which “soluble on expression in E. coli” value is on record?
Answer: soluble

Question: For “MGSDKIHHHHHHMKVQYECLTCMANQCQRIVEMATQDMDIRRRAMILAAKLLAKEYNENAIPAIAGSLIFLELYKFLGNDDPFIEYKLKSEEMARKVADIIKRKLKLDFELAVKLAIIGNVIDFSVGFSPEDLEEEVEKMLKDKLYIDDSKELFEEVKRAENILYITDNVGEHYFDAILIEKIREISNAEVYIAGKEGPIINDATVEDLKRAGLEKLGKVISTGTRIVGVPLKLVSREFMEAFNKADVIIAKGQGNFETLSEINDSRIFFLLKAKCPAVARELKVPKGALVCMRNKFKL”, which “soluble on expression in E. coli” value is on record?
Answer: soluble

Question: Which “soluble on expression in E. coli” value does the source give for “MSLGEKASKVLITSVPKCGTHLLKQVVLGAPFYKRGKWISLRESIREQIDNCHDQTIMVGHLEYSEEIVRYLNEKGIRRLFIYRDPRDMLISYVFYVKEIAPKHELRNYFLHVLGSDEERIMKLITGFHYQEENLTYGDLTLHYQPFLPWIEDKGTLALRFEDLVSSNECKEQTISKIADYLWHGSTFDQYNKAVLKKRMLENIRPSHSGTFRKGVSGDWKNYFTAQHKSVFKEVAGQLLIDLGYEKDMDEGHHHHHH” here?
Answer: soluble

Question: For “MSLTKDILILAVETSCDETSVSVIKNGRDILSNTVLSQIESHKRFGGVVPEVASRHHVEGITTTINEALVDADVSMEDIDAIAVTEGPGLIGALLIGVNAAKALAFAYDKPLIPVHHIAGHIYANHIEEPLTFPLIALIVSGGHTELVYMKDHLSFEVIGETRDDAVGEAYDKVARTIGLNYPGGPQVDRLAAEGEDTYSFPRVWLDKDSYDFSFSGLKSAVINQLHNQRQKNIPIIEANVATSFQNSVVEVLTFKAIQACKEYSVQRLIVAGGVASNKGLRQSLADQCKVNDIQLTIPSPKLCTDNAAMIGVAGHSLYQQGRFADLALNGHSNIDLEEYSAEEGHHHHHH”, which “soluble on expression in E. coli” value is on record?
Answer: soluble

Question: For “MAAEGKAIAKVNDLVIFVPYVVPGDVVDLQIKRKKNKYAEAEAVKFHELSPVRAVPFCQHYGVCGGCKWQVLPYSEQIRYKQKQVEDNLRRIGKIELPEISPILGSAKTEFYRNKLEFTFSNKRWLTNDEVRQDVKYDQMNAVGFHIPGAFDKVLAIEKCWLQDDISNRIRNAVRDYAYEHDYSFINLRTQEGMLRNLIIRTSSTGELMVIVICKITEDHEMELFKQLLQFIADSFPEITSLLYIINNKCNDTINDLDVHVFKGKDHMFEEMEGLRFKVGPKSFYQTNSEQAYNLYKIAREFAGLTGKELVYDLYTGTGTIANFVSRQARQVIGIEYVPEAIEDAKVNAEINEIKNALFYAGDMKDMLTQEFINQHGRPDVIITDPPRAGMHQDVVDVILFAEPKRIVYVSCNPATQARDLQLLDGKYKVKAVQPVDMFPHTHHVENVVLLELR”, which “soluble on expression in E. coli” value is on record?
Answer: not soluble

Question: For “MSLAFKPARVIFEQDALKYPMGEKLYRFFRDKGTDVSFAASHNRVSAIPGRTRSEKYFEAKRTLVVGVRRTTAFETCKPSAHFQLPLATSCPGKCEYCYLLTNMGKKPYVRIYVNIEEILSAARGYIEDRKPQVTVFEGAATSDPVPVEPYTGALARAVEFFGGQEYGRFRFVTKFTEVDTLLDVPHNGHTRFRFSINTPEVIRRFEHATPPLAERLAAAWKVAAAGYPLGFLVAPIIMYDGWRDSYRDLFKTAAAGLNGKVYDLTFEFITHRFTKRAKGTILEVFPSTRLDMDEEARAFKFGQFGYGKYVYPKELFSDAKIYFEGLAGEYFPGSKVEYFVEGHHHHHH”, which “soluble on expression in E. coli” value is on record?
Answer: not soluble

Question: For “MQIVKKEKFILKEYTFENGRTIPVQMGYETYGTLNRERSNVILICHYFSATSHAAGKYTAHDEESGWWDGLIGPGKAIDTNQYFVICTDNLCNVQVKNPHVITTGPKSINPKTGDEYAMDFPVFTFLDVARMQCELIKDMGIARLHAVMGPSAGGMIAQQWAVHYPHMVERMIGVITNPQNPIITSVNVAQNAIEAIRLDPSWKGGKYGEEQPMKGLQLANRMMFMNAFDEHFYETTYPRNSIEVEPYEKVSSLTSFEKEINKLTYRSIELVDANSWMYTAKAVLLHDIAHGFSSLEEALSNVEANVLMIPCKQDLLQPSRYNYKMVDLLQKQGKYAEVYEIESINGHMAGVFDIHLFEKKVYEFLNRKVSSFV”, which “soluble on expression in E. coli” value is on record?
Answer: not soluble

Question: Which “soluble on expression in E. coli” value does the source give for “MSQFKNIIVTGGAGFIGSNFVHYVYNNHPDVHVTVLDKLTYAGNKANLEAILGDRVELVVGDIADAELVDKLAAKADAIVHYAAESHNDNSLNDPSPFIHTNFIGTYTLLEAARKYDIRFHHVSTDEVYGDLPLREDLPGHGEGPGEKFTAETNYNPSSPYSSTKAASDLIVKAWVRSFGVKATISNCSNNYGPYQHIEKFIPRQITNILAGIKPKLYGEGKNVRDWIHTNDHSTGVWAILTKGRMGETYLIGADGEKNNKEVLELILEKMGQPKDAYDHVTDRAGHDLRYAIDASKLRDELGWTPQFTDFSEGLEETIQWYTDNQDWWKAEKEAVEANYAKTQEVIK” here?
Answer: soluble

Question: With “MADTLGKSELEVIKPQKREIRKGQVRKHIITVKVRNEMGVLARIATLIAGKGYNIEGLSVGETHEKGISRMTIEVIGDDIVIEQVVKQLRRLIDTLKVSDLTDVPHVERELALIKVYTPSSRARDEVLRITEIFRGKVVDVSPDTYTIEVTGDEDKINAMIELLKPFGIKEMARTGKVAMRREMSIKEEENELEHHHHHH” as the sequence, how does the “soluble on expression in E. coli” value read?
Answer: not soluble

Question: For “MGSDKIHHHHHHMNLRRDALQILKETSRTFYIPISLLPPGLQEAVASAYLCMRAIDEIEDHPEIDNATKAKLLRSISLTLQAGVDGFAVEAFFTGFNGYENTLEEVTLRIREWLLLAPETIAPRIWDATAAMSDRMAYWSERNWKIYTESDLDRYTFGVAGAVGLLLSDLWTWYDGTQTNRTQAIGFGRGLQAVNILRNHTEDLRRGVDFFPEGWSAENMQEYARRNLALAEAYTKGLPTGPALDFCQIPLTLANGTLDALANGKEKLSRSDVFALIEQIISVNMKAS”, which “soluble on expression in E. coli” value is on record?
Answer: not soluble

Question: For “MATLLFFSKPISDFVLGDKVGFDAKILESNDRILLIKPLQIGVDSNISVIDNEGKIFSFYVFSTTFTSSKHPNLQVFIEDKNYYSNAFLKPQKENMAENAPKDAPTNNKPLKEEKEETKEKEEETITIGDNTNAMKIVKKDIQKGYKALKSSQRKWYCLGICSKKSKLSLMPKEIFNDKQFTYFKFDKRLALSKFPVIYKVVDGYDNPVNTRIVGDYIIAEDVSAKWTLRLGKDYLCIRFVKKAKDE”, which “soluble on expression in E. coli” value is on record?
Answer: not soluble

Question: For “SLGSQGSGLEQSSFQWSPSGRRTGSLYCRVGIGFHLQIYPDGKVNGSHEANMLSVLEIFAVSQGIVGIRGVFSNKFLAMSKKGKLHASAKFTDDCKFRERFQENSYNTYASAIHRTEKTGREWYVALNKRGKAKRGCSPRVKPQHISTHFLPRFKQSEQPELSFTVTVPEKEG”, which “soluble on expression in E. coli” value is on record?
Answer: soluble

Question: Which “soluble on expression in E. coli” value does the source give for “MREVLLEKLRTEKFLQIALDFIDINDAIKVVNEVKDLENEIIEIGTPLLKSFGIEGIRKIKSLVPDKIIVADTKTADAGDVEVEIAKLGGAHIMTVLGIMDDSTIYSAVKKARELDILVQADLINVKNVYERSKELKQLGVDIIGFHVGLDVQKSRGISVADLKNEIRKVSELNLIISIAGGLNKDRILELIDLPVSIYVVGGAITRSKEPKNVSKEIVNILKGR” here?
Answer: not soluble

Question: Which “soluble on expression in E. coli” value does the source give for “MRAMNDRLPSFCTPLDDRWPLPVALPGVQLRSTRFDPALLQPGDFALAGIQPPANILRAVAKRQAEFLAGRLCARAALFALDGRAQTPAVGEDRAPVWPAAISGSITHGDRWAAALVAARGDWRGLGLDVETLLEAERARYLHGEILTEGERLRFADDLERRTGLLVTLAFSLKESLFKALYPLVGKRFYFEHAELLEWRADGQARLRLLTDLSPEWRHGSELDAQFAVLDGRLLSLVAVGA” here?
Answer: not soluble
